In patent US20210032294A1, “MODIFIED PlySs2 LYSINS AND USES THEREOF” (CONTRAFECT CORPORATION, priority 2018, published 2021):
Positions count from the first letter of the chain named. In names and notes the source's numbering stands. Several values for one entry are separate records, joined by “and”; a condition that tells them apart may be missing. Equal entries are not always repeated.

B1: CF-301: WT GMP grade PlySs2 lysin, SEQ ID NO: 1 (protein, listed as Streptococcus suis)
chain: MTTVNEALNNVRAQVGSGVSVGNGECYALASWYERMISPDATVGLGAGVGWVSGAIGDTISAKNIGSSYNWQANGWTVSTSGPFKAGQIVTLGATPGNPYGHVVIVEAVDGDRLTILEQNYGGKRYPVRNYYSAASYRQQVVHYITPPGTVAQSAPNLAGSRSYRETGTMTVTVDALNVRRAPNTSGEIVAVYKRGESFDYDTVIIDVNGYVWVSYIGGSGKRNYVATGATKDGKRFGNAWGTFK
B2: pp55: Modified PlySs2 lysin, SEQ ID NO: 3: L92W, V104S, V128T, Y137S; extra C-terminal lysine (+246K) (protein)
chain: B1 chain with L92W, V104S, V128T, Y137S
B3: pp65: Modified PlySs2 lysin, SEQ ID NO: 5: L92W, V104S, V128T, Y137S, S198Q, V204A, V212A; +246K (protein)
chain: B1 chain with L92W, V104S, V128T, Y137S, S198Q, V204A, V212A
B4: pp61: Modified PlySs2 lysin, SEQ ID NO: 4: L92W, V104S, V128T, Y137S, S198H, I206E; +246K (protein)
chain: B1 chain with L92W, V104S, V128T, Y137S, S198H, I206E

Assays:
bacterial inoculum = test: Thermal stability: in vitro lytic assay after 30 min heating; format: cell-based; details: for % Wild-Type Activity at 37° C. / % of CF-301 wild-type, 37° C.: 30 minutes at 37° C.; for % Wild-Type Activity at 37° C.: 128 μg/mL in Tris buffer pH 8.0, CF-301 set at 100; for % of CF-301 wild-type, 37° C.: another experiment; for % of CF-301 wild-type, 40° C.: 30 minutes at 40° C.; for % of CF-301 wild-type, 42° C.: 30 minutes at 42° C.; for % of CF-301 wild-type, 45° C.: 30 minutes at 45° C.; for % of CF-301 wild-type, 48° C.: 30 minutes at 48° C.; for % of CF-301 wild-type, 50° C.: 30 minutes at 50° C.
Method: Thermal stability was assessed by incubating the lysin polypeptides at a fixed concentration of 128 μg/mL in Tris buffer pH 8.0 for 30 minutes at various elevated temperatures (within the range of about 30° C. to 60° C.) prior to assessing activity. The samples were then cooled for 2 minutes on ice and activity was then assessed by an in vitro lytic assay by exposing a bacterial inoculum (OD600 ˜0.5-1.2) in Tris buffer to a 2-fold dilution series of each sample (diluted from 128-0.25 μg/mL across the x-axis of a 96 well microtiter plate). The loss of optical density was followed for 15 minute at room temperature, and the specific activity was determined based on the enzyme concentration enabling a 50% loss of optical density at 15 minutes. The enzyme activities of each variant were compared to the wild-type, CF-301 enzyme (GMT-grade PlySs2 protein) to calculate the % of Wild-Type Activity over a range of temperatures.
The thermal stability of wild-type, CF-301 was arbitrarily set at 100. The results for exemplary modified lysin polypeptides are set forth below in Table 5 at a single temperature of 37° C.:
In another experiment, the thermal stability of modified lysin polypeptides was assessed at different temperatures and compared with that of wild-type, CF-301 (set at 100).

MSSA isolates = test: MIC in CAMHB-HSD against MSSA isolates; format: cell-based, Staphylococcus aureus; details: 51 MSSA isolates
Method: (§1) In vitro activity of the modified lysin polypeptide pp296 was assessed against a range of 51 MSSA and 51 MRSA isolates in cation-adjusted Mueller Hinton broth supplemented with 25% horse serum and 0.5 mM DTT (CAMHB-HSD) and compared to WT GMP grade PlySs2 (CF-301). CF-301 and pp296 were each diluted into CAMHB-HSD. For each lysin, the dilution series is set up such that, after a two-fold dilution of each well of the plate, the final concentrations contained: 64, 32, 16, 8, 4, 2, 1, 0.5, 0.25, and 0.125 μg/mL. Each lysin was tested in duplicate against each strain. Preparations were incubated overnight. Growth was visualized as a growth button approximately 2 mm in diameter. The highest dilution that yielded ≥80% growth inhibition was called the minimum inhibitory concentration (MIC). The activity of pp296 was very similar, within one 2-fold dilution, to that of CF-301, as shown below in Table 7.

MRSA isolates = test: MIC in CAMHB-HSD against MRSA isolates; format: cell-based, Staphylococcus aureus; details: 51 MRSA isolates
Method: as §1

[1] = tested on: 5 MRSA strains and 5 MSSA strains; test: Checkerboard synergy assay with daptomycin or vancomycin; format: cell-based, Staphylococcus aureus; details: with vancomycin
Method: Synergy studies with antibiotics suitable for treatment of Gram-positive bacteria, for example, daptomycin (DAP) and vancomycin (VAN), were performed using a checkerboard assay. Fractional inhibitory concentration (FIC) index values were determined for modified lysin polypeptide pp296 and antibiotic combinations against 5 methicillin-sensitive Staphylococcus aureus (MSSA) and 5 methicillin resistant Staphylococcus aureus (MRSA) isolates. An FIC index value of ≤0.5 may be interpreted as strong synergy between the two agents, while a value between 0.5 and 1 may still be considered a synergistic effect. Given that pp296 has four amino acid replacements in the catalytic domain, the ability of pp296 to synergize with antibiotics was unexpected. […] Qualitatively similar results may be anticipated upon performing similar assays using other de-immunized active variants, such as pp55, pp61, pp65, pp400, and pp619, in accordance with the present disclosure.
In another experiment, the ability of modified lysin polypeptide pp296 to synergize with daptomycin and vancomycin was assessed using a checkerboard analysis. FIC (fractional inhibitory concentration) index values were determined for pp296 and antibiotic combinations against 5 MSSA and 5 MRSA isolates. A total of 50 μl of Mueller-Hinton broth (BBL) was distributed into each well of microdilution plates. The first antibiotic of the combination was serially diluted along the ordinate, while the second drug was diluted along the abscissa. An inoculum equal to a 0.5 McFarland turbidity standard was prepared from each S. aureus isolate in MHB. Each microtiter well was inoculated with 100 μl of a bacterial inoculum of 5×10^5 CFU/ml, and the plates were incubated at 37° C. for 18 h under aerobic conditions. The resulting checkerboard contained each combination of two antibiotics, with wells that contained the highest concentration of each antibiotic at opposite corners. […] To quantify the interactions between the antibiotics being tested, the FIC index (the combination of antibiotics that produced the greatest change from the individual antibiotic's MIC) value was calculated for each strain and antibiotic combination as follows:
(A/MICA)+(B/MICB)=FICA+FICB=FIC index,
Checkerboards were generated using combinations of pp296 with either daptomycin or vancomycin against 5 MRSA strains (MW2, JMI-5675, JMI-4408, JMI-6181, and JMI-6182) and 5 MSSA strains (ATCC 29213, JMI-40979, JMI-43257, JMI-41293, and JMI-49315). Synergy was defined as inhibitory activity greater than what would be predicted by adding the two components together.

[2] = tested on: 1-day old biofilms formed by MSSA isolates; test: Minimum Biofilm Eradication Concentration (MBEC), MSSA biofilms; format: cell-based, Staphylococcus aureus; details: 24 hours treatment
Method: (§2) In some embodiments, the present modified lysin polypeptides are capable of reducing a biofilm. […] Biofilms are then washed and treated with e.g., a 2-fold dilution series of the lysin in TSBg at e.g., 37° C. for 24 hours. After treatment, wells are washed, air-dried at e.g., 37° C. and stained with e.g., 0.05% crystal violet for 10 minutes. After staining, the biofilms are destained in e.g., 33% acetic acid and the OD600 of e.g., extracted crystal violet is determined. The MBEC of each sample is the minimum lysin concentration required to remove >95% of the biofilm biomass assessed by crystal violet quantitation.
(§3) The anti-biofilm activity of pp296 was determined against 1-day old biofilms formed by 17 MSSA and 20 MRSA isolates in a 96-well broth microdilution format. The Minimum Biofilm Eradication Concentration (MBEC) values for pp296, compared to wild-type PlySs2 (CF-301), were determined by the following standard methodology. Bacteria were suspended in PBS (0.5 McFarland Units), diluted 1:100 in TSBg (66% tryptic soy broth, 0.2% glucose), added as 0.15 mL aliquots to 96-well polystyrene microplates, and incubated for 24 hours at 37° C. Biofilms were then washed and treated with a 2-fold dilution series of CF-301 or pp296 in TSBg at 37° C. for 24 hours. All samples were examined in triplicate. After treatment, wells were washed, air-dried at 37° C., and stained with 0.05% crystal violet for 10 min The loss of biofilm biomass was assessed visually, and crystal violet was quantitated by solubilization in 33% (vol/vol) acetic acid. The optical density of 600 nm (OD600) was determined using a SpectraMax M3 Multimode microplate reader. The MBEC of each sample was the minimum lysin concentration required to remove >95% of the biofilm biomass assessed by crystal violet quantitation.

[3] = tested on: 1-day old biofilms formed by MRSA isolates; test: Minimum Biofilm Eradication Concentration (MBEC), MRSA biofilms; format: cell-based, Staphylococcus aureus; details: 24 hours treatment
Method: as §2, §3

[4] = Toxicity screening in mice; format: in vivo
Method: Selected modified lysin polypeptides from Table 3 were subjected to further testing as described in more detail in subsequent Examples. […] The same 30 mg/kg dose of PlySs2 caused a 100% incidence of adventitial findings, which is an indication of potential toxicity.

[5] = tested on: 5 MRSA strains and 5 MSSA strains; test: Checkerboard synergy assay with daptomycin or vancomycin; format: cell-based, Staphylococcus aureus; details: MRSA (JMI-41293) strain
[6] = tested on: S. aureus isolate CFS-860; test: Mouse neutropenic thigh infection (MNTI) model; format: in vivo, Staphylococcus aureus; details: neutropenic BALB/cByJ mice, intravenous, dose response, 24 hours
Method: The efficacy of four modified lysin polypeptides was compared to wild-type PlySs2 in a dose response (0-60 mg/kg) assay using a mouse neutropenic thigh infection (MNTI) model.
Bacterial inoculum was generated by allowing bacterial cells to grow to exponential phase in MHB until they reached an optical density (OD) of about 0.5 at 600 nm. The bacterial cells were thoroughly washed, resuspended in 0.9% sodium chloride USP, and diluted to an equivalent of 3.9×10^8 colony forming units (CFU)/mL. Cells were further diluted as described below in 0.9% sodium chloride USP and maintained on wet ice.
Neutropenia was induced in female BALB/cByJ mice (5-7 weeks, Jackson Laboratories) by intraperitoneal (ip) administration of 150 mg/kg and 100 mg/kg of cyclophosphamide 4 and 1 days prior to inoculation of bacteria, respectively. Bacterial inoculum (S. aureus isolate CFS-860, 100 μl of 10^7 CFU/ml solution) was injected intramuscularly (IM) into both posterior thighs of each mouse. […] At 2 hours post-inoculation (Early Control) and 24 hours post-treatment initiation, animals were euthanized (CO2 asphyxiation), and the thighs were aseptically removed. Each thigh was weighed, placed into 4 ml sterile saline and homogenized in 7 ml lysing tubes using a Precellys24 high-throughput tissue homogenizer (Bertin Corp, Rockville, Md.). Dilutions of homogenate were plated on tryptic soy blood agar plates (Becton Dickinson) and incubated at 37° C. overnight in a CO2 incubator. Bacterial burden was enumerated and expressed as log 10 CFU/g of thigh weight and compared to control animals harvested at 2 hours post infection (Early Control) and animals treated with vehicle (Late Control).
The data representing mouse thigh bacterial burden are depicted in FIG. 2. The upper dot on the y-axis is vehicle alone, and the lower dot on the y-axis is the Early Control. pp1149 is in fact also a wild-type lysin over-expressed and purified in the laboratory along with the other modified lysin polypeptides and used as an additional positive control.

Molecule | % Wild-Type Activity at 37° C. (bacterial inoculum) | Adventitial findings (lesions) ([4]; 30 mg/kg) | % of CF-301 wild-type, 37° C. (bacterial inoculum) [%] | % of CF-301 wild-type, 40° C. (bacterial inoculum) [%] | % of CF-301 wild-type, 42° C. (bacterial inoculum) [%] | % of CF-301 wild-type, 45° C. (bacterial inoculum) [%] | % of CF-301 wild-type, 48° C. (bacterial inoculum) [%] | % of CF-301 wild-type, 50° C. (bacterial inoculum) [%] | Bactericidal efficacy (thigh bacterial burden) versus wild type [6] | also measured
B1 | 100% | all mice |  |  |  |  |  |  |  | MIC50 (MSSA isolates): 0.5 µg/mL; MIC90 (MSSA isolates): 1 µg/mL; MIC Range (MSSA isolates): 0.5 to 1 µg/mL; MIC50 (MRSA isolates): 0.5 µg/mL; MIC90 (MRSA isolates): 0.5 µg/mL; MIC Range (MRSA isolates): 0.12 to 1 µg/mL; FIC index ([1]; MRSA JMI-6182): 0.5; FIC index ([1]; MSSA ATCC 29213): 0.5; FIC index ([1]; MSSA strain JMI-40979): 0.5; FIC index ([1]; against 6 of the 10 strains examined): 0.5; MBEC50 [2]: 0.125 µg/mL; MBEC90 [2]: 0.125 µg/mL; MBEC Range [2]: 0.125 to 0.5 µg/mL; MBEC50 [3]: 0.125 µg/mL; MBEC90 [3]: 0.125 µg/mL; MBEC Range [3]: 0.125 to 0.25 µg/mL; Kidney findings (renal changes) [4]: did not result in kidney findings; Incidence of adventitial findings ([4]; 30 mg/kg): 100%; FIC index [5]: 0.5
B2 | 122% and 146% | did not result in adventitial lesions | 122.1 | 110.8 | 116.7 | 82.0 | 36.5 | 11.2 | activity comparable to wild-type PlySs2 lysin | 
B3 | 220% | did not result in adventitial lesions | 219.9 | 248.4 | 270.4 | 82.1 | 0.0 | 0.0 | activity comparable to wild-type PlySs2 lysin | 
B4 | 258% | did not result in adventitial lesions | 258.3 | 149.1 | 189.4 | 80.0 | 0.0 | 0.0 | activity comparable to wild-type PlySs2 lysin | 
